Source: US20090324573A1, “Pharmaceutical Composition Comprising P43 Protein for the Treatment of Gastric Adenocarcinoma” (priority 2006, published 2009)

Legend:
Type in all cases: in vivo, BALB/cA bare mouse
Parameters in all cases: TV d 0 / TV d 21: unit not given here
Conditions in all cases: for RTV: RTV=Vt/V0; for T/C (%): TRTV/CRTV×100; for Weight (g) Final: final body weight; for Weight (g) First: first (baseline) body weight; for TV d 0: d 0, day of first administration
[1] = system: human gastric adenocarcinoma SGC-7901; assay: Transplanted tumor of human gastric adenocarcinoma SGC-7901 in bare mouse
Excerpt: (§1) Animal Resource, Line and Strain: BALB/cA bare mouse, provided by Experimental Animal Center, Chinese Academy of Sciences, Shanghai, China.
Bare mouse transplanted with human gastric adenocarcinoma […] was established by subcutaneously inoculating human gastric adenocarcinoma SGC-7901 cell strain into bare mouse, with a inoculation concentration of 1-3×10^6. After establishing the transplanted tumor, it was passaged in bare mouse for three generations prior to use.
(§2) The eugonic tumor tissue was cut into about 1.5 mm^3. It was inoculated into hypodermis in right armpit of bare mouse under aseptic condition. The diameter of the transplanted tumor of the bare mouse was measured by vernier caliper. After the tumor grew to 100-300 mm^3, the mice were grouped randomly. The effect of reagents used for inhibiting tumor was observed dynamically through measuring the diameter of tumor. The diameter of tumor was measured 3 times per week, while measuring the weight of mice. With respect to the mice in an administration group, the mice were administrated by intravenous injection 6 times per week: with respect to the mice in a positive control group, the mice were administrated by intravenous injection 2 times per week; with respect to the mice in a negative control group, the mice were administrated by same amount of physiological saline at the same time.
(§3) The tumor volume (TV) was calculated as follows:
in which a and b represent length and width, respectively. The relative tumor volume (RTV) was calculated based on the measured results: RTV=Vt/V0, in which V0 represents the tumor volume measured at the first administration (d0), and Vt represents the tumor volume measured at each measurement. The factor for estimating the effect against tumor is the relative tumor proliferation T/C (%) as follows:
(§4) TRTV: RTV for treating group; CRTV: RTV for negative control group.
100 mg of p43 protein, obtained from Sine Laboratory in Shanghai, China, was dissolved in physiological saline to form a solution of 1 mg/ml.
(§5) The solution was administrated to bare mouse by intravenous injection in 2.5 mg p43 protein/kg weight, 5 mg p43 protein/kg weight, and 10 mg p43 protein/kg weight.

[2] = system: human colon carcinoma HCT-116; assay: Transplanted tumor of human colon carcinoma HCT-116 in bare mouse
Excerpt: as §1
(§6) Number of animal in each group: 10 mice for negative control group and 5 mice for treating group
Transplanted tumor of human colon carcinoma HCT-116 in bare mouse was established by inoculating human colon carcinoma HCT-116 cell strain into hypoderm of bare mouse, with a inoculation concentration of 1-3×10^6. After establishing the transplanted tumor, it was passaged in bare mouse for three generations prior to use.
as §2, with “through the method of” for “through”, “week,” for “week:”
as §3
(§7) in which a and b represent length and width, respectively. The relative tumor volume (RTV) was calculated depending on the measured results: RTV=Vt/V0, in which V0 represents the tumor volume measured at the first administration (d0), and Vt represents the tumor volume measured at each measurement. The factor for estimating the effect against tumor is the relative tumor growth T/C (%) as follows:
as §4
100 mg of p43 protein, available from Sine Laboratory in Shanghai, China, was dissolved in physiological saline to form a solution of 1 mg/ml.
as §5

[3] = system: human nasopharyngeal carcinoma CNE-1; assay: Transplanted tumor of human nasopharyngeal carcinoma CNE-1 in bare mouse
Excerpt: as §1, §6
Transplanted tumor of human nasopharyngeal carcinoma CNE-1 in bare mouse was established by inoculating human nasopharyngeal carcinoma CNE-1 cell strain into hypoderm of bare mouse, with a inoculation concentration of 1-3×10^6. After establishing the transplanted tumor, it was passaged in bare mouse for three generations prior to use.
as §2, with “fro” for “for”, “through the method of” for “through”, “week;” for “week:”
as §3, §7, §4
100 mg of p43 protein, available from Sine Laboratory in Shanghai, China, was dissolved in physiological saline to form a solution of 1 mg/ml. […]

[4] = 2.5 mg/kg intravenous injection 6 times per week
[5] = 2.5 mg/kg intravenous injection
[6] = 5 mg/kg intravenous injection 6 times per week
[7] = 10 mg/kg intravenous injection 6 times per week

B1: P43: accessory factor of tRNA synthetase of mammals; single-chain protein of 312 amino acids; obtained from Sine Laboratory, Shanghai (protein, UniProt Q12904 2-312, looked up)
Aminoacyl tRNA synthase …: ANNDAVLKRLEQKGAEADQIIEYLKQQVSLLKEKAILQATLREEKKLRVENAKLKKEIEELKQELIQAEIQNGVKQIPFPSGTPLHANSMVSENVIQSTAVTTVSSGTKEQIKGGTGDEKKAKEKIEKKGEKKEKKQQSIAGSADSKPIDVSRLDLRIGCIITARKHPDADSLYVEEVDVGEIAPRTVVSGLVNHVPLEQMQNRMVILLCNLKPAKMRGVLSQAMVMCASSPEKIEILAPPNGSVPGDRITFDAFPGEPDKELNPKKKIWEQIQPDLHTNDECVATYKGVPFEVKGKGVCRAQTMSNSGIK
RTV [1, 4]: 17.14 ± 7.25 | T/C (%) [1, 4]: 81.7% | TV d 21 [1, 4]: 2400 ± 360 | Weight (g) Final [1, 4]: 26.7 ± 1.7 g | Weight (g) First [1, 4]: 20.3 ± 0.9 g | TV d 0 [1, 5]: 140 ± 73 | RTV [1, 6]: 11.37 ± 6.3 | T/C (%) [1, 6]: 54.2% | TV d 21 [1, 6]: 1648 ± 102 | Weight (g) Final [1, 6]: 25.1 ± 1.9 g | Weight (g) First [1, 6]: 20.5 ± 0.7 g | TV d 0 ([1]; 5 mg/kg intravenous injection): 146 ± 72 | RTV [1, 7]: 12.99 ± 5.14 | T/C (%) [1, 7]: 61.9% | TV d 21 [1, 7]: 1715 ± 168 | Weight (g) Final [1, 7]: 25.4 ± 2.8 g | Weight (g) First [1, 7]: 20.7 ± 0.6 g | TV d 0 ([1]; 10 mg/kg intravenous injection): 132 ± 34 | side effect ([1]; SGC-7901 bearing bare mouse, 2.5, 5 and 10 mg/kg intravenous injection): without any obvious side effect | inhibition on growth of transplanted tumor ([1]; SGC-7901 in bare mouse, 2.5, 5 and 10 mg/kg intravenous injection): significant inhibition | RTV [2, 4]: 5.01 ± 0.92 | T/C (%) [2, 4]: 84.5% | TV d 21 [2, 4]: 822 ± 145 | Weight (g) Final [2, 4]: 24.1 ± 1.5 g | Weight (g) First [2, 4]: 20.7 g | TV d 0 [2, 5]: 164 ± 48 | RTV [2, 6]: 4.51 ± 0.75 | T/C (%) [2, 6]: 76.0% | TV d 21 [2, 6]: 703 ± 189 | Weight (g) Final [2, 6]: 23.9 ± 2.2 g | Weight (g) First [2, 6]: 21.3 g | TV d 0 ([2]; 5 mg/kg intravenous injection): 156 ± 39 | RTV [2, 7]: 4.73 ± 1.01 | T/C (%) [2, 7]: 79.7% | T/C (%) ([2]; 10 mg/kg intravenous injection 6 times per week, listed as p43): 79.79% | TV d 21 [2, 7]: 761 ± 211 | Weight (g) Final [2, 7]: 23.5 ± 2.1 g | Weight (g) First [2, 7]: 20.9 g | TV d 0 ([2]; 10 mg/kg intravenous injection): 161 ± 52 | side effect ([2]; HCT-116 bearing bare mouse, 2.5, 5 and 10 mg/kg intravenous injection): without any obvious side effect | inhibition on growth of transplanted tumor ([2]; HCT-116 in bare mouse, 2.5, 5 and 10 mg/kg intravenous injection): non-significant inhibition | RTV [3, 4]: 13.43 ± 5.64 | T/C (%) [3, 4]: 88.9% | TV d 21 [3, 4]: 1921 ± 201 | Weight (g) Final [3, 4]: 24.6 ± 2.4 g | Weight (g) First [3, 4]: 20.5 ± 1.3 g | TV d 0 [3, 5]: 143 ± 70 | RTV [3, 6]: 12.75 ± 5.12 | T/C (%) [3, 6]: 84.4% | TV d 21 [3, 6]: 1708 ± 154 | Weight (g) Final [3, 6]: 23.1 ± 1.8 g | Weight (g) First [3, 6]: 19.6 ± 0.8 g | TV d 0 ([3]; 5 mg/kg intravenous injection): 134 ± 48 | RTV [3, 7]: 12.63 ± 4.88 | T/C (%) [3, 7]: 83.6% | TV d 21 [3, 7]: 1856 ± 173 | Weight (g) Final [3, 7]: 22.9 ± 2.3 g | Weight (g) First [3, 7]: 19.8 ± 1.1 g | TV d 0 ([3]; 10 mg/kg intravenous injection): 147 ± 63 | side effect ([3]; CNE-1 bearing bare mouse, 2.5, 5 and 10 mg/kg intravenous injection): without any obvious side effect | inhibition on growth of transplanted tumor ([3]; CNE-1 in bare mouse, 2.5, 5 and 10 mg/kg intravenous injection): non-significant inhibition
